Substitutions are numbered along the chain they refer to. Numbers in names are those of the source.
B1: Human complement factor H purified from plasma (other)
chain: EDCNELPPRRNTEILTGSWSDQTYPEGTQAIYKCRPGYRSLGNVIMVCRKGEWVALNPLRKCQKRPCGHPGDTPFGTFTLTGGNVFEYGVKAVYTCNEGYQLLGEINYRECDTDGWTNDIPICEVVKCLPVTAPENGKIVSSAMEPDREYHFGQAVRFVCNSGYKIEGDEEMHCSDDGFWSKEKPKCVEISCKSPDVINGSPISQKIIYKENERFQYKCNMGYEYSERGDAVCTESGWRPLPSCEEKSCDNPYIPNGDYSPLRIKHRTGDEITYQCRNGFYPATRGNTAKCTSTGWIPAPRCTLKPCDYPDIKHGGLYHENMRRPYFPVAVGKYYSYYCDEHFETPSGSYWDHIHCTQDGWSPAVPCLRKCYFPYLENGYNQNYGRKFVQGKSIDVACHPGYALPKAQTTVTCMENGWSPTPRCIRVKTCSKSSIDIENGFISESQYTYALKEKAKYQCKLGYVTADGETSGSITCGKDGWSAQPTCIKSCDIPVFMNARTKNDFTWFKLNDTLDYECHDGYESNTGSTTGSIVCGYNGWSDLPICYERECELPKIDVHLVPDRKKDQYKVGEVLKFSCKPGFTIVGPNSVQCYHFGLSPDLPICKEQVQSCGPPPELLNGNVKEKTKEEYGHSEVVEYYCNPRFLMKGPNKIQCVDGEWTTLPVCIVEESTCGDIPELEHGWAQLSSPPYYYGDSVEFNCSESFTMIGHRSITCIHGVWTQLPQCVAIDKLKKCKSSNLIILEEHLKNKKEFDHNSNIRYRCRGKEGWIHTVCINGRWDPEVNCSMAQIQLCPPPPQIPNSHNMTTTLNYRDGEKVSVLCQENYLIQEGEEITCKDGRWQSIPLCVEKIPCSQPPQIEHGTINSSRSSQESYAHGTKLSYTCEGGFRISEENETTCYMGKWSSPPQCEGLPCKSPPEISHGVVAHMSDSYQYGEEVTYKCFEGFGIDGPAIAKCLGEKWSHPPSCIKTDCLSLPSFENAIPMGEKKDVYKAGEQVTYTCATYYKMDGASNVTCINSRWTGRPTCRDTSCVNPPTVQNAYIVSRQMSKYPSGERVRYQCRSPYEMFGDEEVMCLNGNWTEPPQCKDSTGKCGPPPPIDNGDITSFPLSVYAPASSVEYQCQNLYQLEGNKRITCRNGQWSEPPKCLHPCVISREIMENYNIALRWTAKQKLYSRTGESVEFVCKRGYRLSSRSHTLRTTCWDGKLEYPTCAKR
notes: also called Plasma CFH; plasma-purified CFH
B2: Recombinant human CFH, wild-type sequence, from Pichia pastoris (other)
chain: B1 chain
notes: also called rCFH; CFH (wt)
B3: Plasma CFH:PspCN complex (other)
chain 1: B1 chain
chain 2: ATENEGSTQAATSSNMAKTEHRKAAKQVVDEYIEKMLREIQLDRRKHTQNVALNIKLSAIKTKYLRELNVLEEKSKDELPSEIKAKLDAAFEKFKKDTLKPGEK
notes: also called PspCN:CFH
B4: rCFH:PspCN complex (other)
chain 1: B1 chain
chain 2: B3 chain 2
notes: also called CFH (wt):PspCN
B5: Recombinant human CFH (D1119G) from Pichia pastoris (other)
chain: B1 chain with D1101G
notes: also called rCFH-D1119G; rCFH (D1119G)
B6: rCFH-D1119G:PspCN complex (other)
chain 1: B1 chain with D1101G
chain 2: B3 chain 2
notes: also called PspCN:CFH (D1119G)
B7: PspC (37-130) (other)
chain: ATENEGSTQAATSSNMAKTEHRKAAKQVVDEYIEKMLREIQLDRRKHTQNVALNIKLSAIKTKYLRELNVLEEKSKDELPSEIKAKLDAAFEKF
B8: PspC (37-120) (other)
chain: ATENEGSTQAATSSNMAKTEHRKAAKQVVDEYIEKMLREIQLDRRKHTQNVALNIKLSAIKTKYLRELNVLEEKSKDELPSEIK
B9: SUMO (fusion partner alone) (other, UniProt Q12306 3-98, looked up)
chain: DSEVNQEAKPEVKPEVKPETHINLKVSDGSSEIFFKIKKTTPLRRLMEAFAKRQGKEMDSLRFLYDGIRIQADQTPEDLDMEDNDIIEAHREQIGG
B10: His-SUMO-Cys-PspCN (other)
chain: CGSGSGSGSGGATENEGSTQAATSSNMAKTEHRKAAKQVVDEYIEKMLREIQLDRRKHTQNVALNIKLSAIKTKYLRELNVLEEKSKDELPSEIKAKLDAAFEKFKKDTLKPGEK
notes: also called Cys-PspCN (as SPR ligand); not shown: N-terminal His-SUMO tag
B11: sPspCNR1 (N-terminally hexaHis-SUMO-tagged PspC residues 37-292, strain D39, including the R1 domain) (other)
chain: ATENEGSTQAATSSNMAKTEHRKAAKQVVDEYIEKMLREIQLDRRKHTQNVALNIKLSAIKTKYLRELNVLEEKSKDELPSEIKAKLDAAFEKFKKDTLKPGEKVAEAKKKVEEAKKKAEDQKEEDRRNYPTNTYKTLELEIAEFDVKVKEAELELVKEEAKESRNEGTIKQAKEKVESKKAEATRLENIKTDRKKAEEEAKRKADGKLKEANVATSDQGKPKGRAKRGVPGELATPDKKENDAKSSDSSVGEETL
notes: not shown: N-terminal hexaHis-SUMO tag from the pE-SUMOpro Kan vector
B12: PspC (37-110) (other)
chain: ATENEGSTQAATSSNMAKTEHRKAAKQVVDEYIEKMLREIQLDRRKHTQNVALNIKLSAIKTKYLRELNVLEEK
B13: PspCN (TIGR4 37-179), fragment of PspC (CbpA) of S. pneumoniae strain TIGR4 (other)
chain: ATENEGATQVPTSSNRANESQAEQGEQPKKLDSERDKARKEVEEYVKKIVGESYAKSTKKRHTITVALVNELNNIKNEYLNKIVESTSESQLQILMMESRSKVDEAVSKFEKDSSSSSSSDSSTKPEASDTAKPNKPTEPGEK
notes: not shown: N-terminal hexaHis-SUMO tag used for capture on the NTA chip
B14: PspC (52-140) (other)
chain: MAKTEHRKAAKQVVDEYIEKMLREIQLDRRKHTQNVALNIKLSAIKTKYLRELNVLEEKSKDELPSEIKAKLDAAFEKFKKDTLKPGEK
B15: His-SUMO-PspCN-Cys (other)
chain: ATENEGSTQAATSSNMAKTEHRKAAKQVVDEYIEKMLREIQLDRRKHTQNVALNIKLSAIKTKYLRELNVLEEKSKDELPSEIKAKLDAAFEKFKKDTLKPGEKGSGSGSGSGGC
notes: also called PspCN-Cys (as SPR ligand); not shown: N-terminal His-SUMO tag
B16: PspC (62-140) (other)
chain: KQVVDEYIEKMLREIQLDRRKHTQNVALNIKLSAIKTKYLRELNVLEEKSKDELPSEIKAKLDAAFEKFKKDTLKPGEK

Assays:
[1] = biological target: Human C3b (plasma-purified) (human) (UniProt P01024); experiment: SPR (Biacore), coupled C3b
Sequence of Human C3b (plasma-purified) (human) (P01024 23-667 limits assumed, chain 1 of 2): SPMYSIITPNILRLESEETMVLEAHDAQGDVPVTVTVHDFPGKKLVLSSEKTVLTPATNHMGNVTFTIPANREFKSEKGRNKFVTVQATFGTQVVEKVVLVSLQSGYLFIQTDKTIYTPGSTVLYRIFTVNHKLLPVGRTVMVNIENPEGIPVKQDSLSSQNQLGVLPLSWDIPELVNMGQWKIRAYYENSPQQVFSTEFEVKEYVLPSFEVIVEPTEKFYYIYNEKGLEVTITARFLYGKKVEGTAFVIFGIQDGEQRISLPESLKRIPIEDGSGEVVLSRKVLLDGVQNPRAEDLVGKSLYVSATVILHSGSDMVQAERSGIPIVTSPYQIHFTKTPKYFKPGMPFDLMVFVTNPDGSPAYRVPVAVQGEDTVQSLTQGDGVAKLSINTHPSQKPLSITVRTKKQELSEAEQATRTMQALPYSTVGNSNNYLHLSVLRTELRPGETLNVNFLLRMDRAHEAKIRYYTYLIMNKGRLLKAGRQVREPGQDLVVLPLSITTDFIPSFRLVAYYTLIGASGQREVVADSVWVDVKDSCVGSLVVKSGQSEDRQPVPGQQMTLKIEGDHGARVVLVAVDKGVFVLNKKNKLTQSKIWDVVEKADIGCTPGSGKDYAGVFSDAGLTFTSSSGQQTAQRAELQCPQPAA
Sequence of Human C3b (plasma-purified) (human) (P01024 749-1663 limits assumed, chain 2 of 2): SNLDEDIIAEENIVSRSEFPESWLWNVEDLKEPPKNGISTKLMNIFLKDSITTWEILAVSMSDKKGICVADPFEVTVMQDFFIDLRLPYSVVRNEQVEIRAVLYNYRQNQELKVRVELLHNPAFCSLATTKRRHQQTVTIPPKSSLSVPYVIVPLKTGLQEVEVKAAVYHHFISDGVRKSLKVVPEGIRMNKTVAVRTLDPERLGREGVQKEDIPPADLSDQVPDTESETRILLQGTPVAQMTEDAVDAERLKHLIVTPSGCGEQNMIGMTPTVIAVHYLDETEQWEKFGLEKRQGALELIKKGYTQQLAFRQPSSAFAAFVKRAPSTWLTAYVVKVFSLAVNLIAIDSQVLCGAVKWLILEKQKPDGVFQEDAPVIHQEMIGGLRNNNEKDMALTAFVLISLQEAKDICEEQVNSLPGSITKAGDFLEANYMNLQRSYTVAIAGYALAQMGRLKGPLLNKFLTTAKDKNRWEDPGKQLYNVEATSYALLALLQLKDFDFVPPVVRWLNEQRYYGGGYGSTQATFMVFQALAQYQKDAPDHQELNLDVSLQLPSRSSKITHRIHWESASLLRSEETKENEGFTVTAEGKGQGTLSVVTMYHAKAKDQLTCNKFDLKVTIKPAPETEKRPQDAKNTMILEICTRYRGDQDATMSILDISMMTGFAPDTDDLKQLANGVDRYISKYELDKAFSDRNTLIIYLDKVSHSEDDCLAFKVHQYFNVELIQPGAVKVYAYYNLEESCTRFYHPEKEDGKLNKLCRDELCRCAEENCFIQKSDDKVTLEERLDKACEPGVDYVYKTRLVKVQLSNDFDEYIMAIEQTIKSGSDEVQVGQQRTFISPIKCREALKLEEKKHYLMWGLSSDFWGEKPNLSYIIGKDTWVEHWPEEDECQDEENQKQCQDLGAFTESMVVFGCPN

[2] = biological target: Human C3d (plasma-purified) (human) (UniProt P01024); experiment: SPR (Biacore), coupled C3d
Sequence of Human C3d (plasma-purified) (human) (P01024 1002-1303 limits assumed): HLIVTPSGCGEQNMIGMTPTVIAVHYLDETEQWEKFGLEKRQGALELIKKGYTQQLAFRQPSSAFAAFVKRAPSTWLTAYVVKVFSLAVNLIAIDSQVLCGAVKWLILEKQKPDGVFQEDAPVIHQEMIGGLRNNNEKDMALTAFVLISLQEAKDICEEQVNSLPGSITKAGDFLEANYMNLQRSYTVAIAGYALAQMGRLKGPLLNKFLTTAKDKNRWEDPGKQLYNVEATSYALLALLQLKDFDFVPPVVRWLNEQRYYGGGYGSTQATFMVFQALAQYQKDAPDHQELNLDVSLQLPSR

[3] = biological target: Human complement factor H purified from plasma (human) (UniProt P08603); experiment: SPR, TIGR4 fragment on NTA chip, CFH as analyte
[4] = biological target: Human complement factor H purified from plasma (human) (UniProt P08603); experiment: SPR
[5] = biological target: Human complement factor H purified from plasma (human) (UniProt P08603); experiment: SPR, immobilised TIGR4 fragment, FH as analyte
[6] = biological target: T1, Human C3b (plasma-purified) (human, UniProt P01024 23-667; P01024 749-1663); experiment: SPR, amine-coupled C3b on C1 chip, equilibrium 1:1 fit
T1 sequence (P01024 23-667 limits assumed, chain 1 of 2): as the sequence (P01024 23-667 limits assumed, chain 1 of 2) above
T1 sequence (P01024 749-1663 limits assumed, chain 2 of 2): as the sequence (P01024 749-1663 limits assumed, chain 2 of 2) above
Description: The sensor chip was regenerated by 2×30 s injections of 1 M NaCl. Data were analysed using the Biacore evaluation software and equilibrium affinity parameters were calculated using a 1:1 binding affinity model.
Commercially sources plasma-purified human C3b, C3c and C3d were immobilized using standard amine coupling to different channels of the same C1 SPR chip (Biacore).

[7] = biological target: T1, Human C3b (plasma-purified); experiment: SPR (Biacore), coupled C3b, TIGR4 experiment
[8] = biological target: T2, Human C3d (plasma-purified) (human, UniProt P01024 1002-1303); experiment: SPR, immobilised C3d
T2 construct: domain: TED; also called TED of C3b
T2 sequence (P01024 1002-1303 limits assumed): as the sequence (P01024 1002-1303 limits assumed) above

[9] = biological target: T1, Human C3b (plasma-purified); experiment: SPR, immobilised C3b
[10] = biological target: T1, Human C3b (plasma-purified); experiment: SPR, amine-coupled C3b on C1 chip
[11] = biological target: B1; experiment: SPR, same assay as for PspCN (37-140)
[12] = biological target: B1; experiment: SPR
[13] = biological target: B1; experiment: SPR, His-SUMO-Cys-PspCN as ligand, plasma-purified CFH as analyte, kinetic analysis
[14] = biological target: B1; experiment: SPR, TIGR4 fragment on NTA chip, CFH as analyte
[15] = biological target: B1; experiment: SPR, immobilised PspC fragment, CFH flowed over
[16] = biological target: B1; experiment: SPR, His-SUMO-PspCN-Cys as ligand, plasma-purified CFH as analyte, kinetic analysis
[17] = biological target: B1; experiment: not stated there (SPR in the examples)

## CFH:TIGR4 (37-179) complex
[1]
  Kd: 280 nM
[2]
  Kd: 1200 nM

## PspCN (TIGR4 68-148), fragment of PspC (CbpA) of S. pneumoniae strain TIGR4
[3]
  Kd: < 0.018 nM
[4]
  Kd: 0.001 pM
[5]
  Kd: < 0.018 nM

## B1
[6]
  Kd: 490 nM
[7]
  Kd: 550 nM

## B2
[6]
  Kd: 580 nM

## B3
[8]
  fold better binding than intact CFH: > 50 fold
[6]
  Kd: 160 nM
[9]
  fold difference in affinity against CFH: 4 fold
[10]
  fold better binding than CFH alone: 3 fold

## B4
[6]
  Kd: 160 nM

## B5
[6]
  Kd: 540 nM

## B6
[6]
  Kd: 320 nM

## B7
[11]
  decrease in binding affinity against PspCN (37-140): ≥ 3 orders of magnitude

## B8
[11]
  decrease in binding affinity against PspCN (37-140): ≥ 3 orders of magnitude

## B9
[12]
  binding result: no binding

## B10
[13]
  Kd: ~0.0001 nM

## B11
[12]
  binding result: binds

## B12
[11]
  decrease in binding affinity against PspCN (37-140): ≥ 3 orders of magnitude

## B13
[14]
  Kd: < 0.01 nM

## B14
[15]
  binding result: binds

## B15
[16]
  Kd: ~0.0001 nM

## B16
[17]
  Kd: ~0.05 pM

Source: patent US20190100563A1 (UNIVERSITY COURT OF THE UNIVERSITY OF EDINBURGH, published 2019)
